Reference: US20240005439A1, “IMAGING METHODS AND RADIOTRACERS FOR USE THEREIN” (VESTLANDETS INNOVASJONSSELSKAP AS (VIS), priority 2020, published 2024)
Blank lines part the entries; values can stand above or below the molecule they belong to.

Experiments:
Iohexol plasma clearance = format: in vivo, rats; conditions: for GFR relative to the initial control value (iohexol): CKD rats; for clearance: rat, plasma, 105 mg
[1] = Iohexol plasma clearance in mice; format: in vivo; conditions: mouse, intravenous, 100 μl (iohexol diluted 1:10 from stock solution), male C3H mice, read-out: GFR with the iohexol plasma clearance method
Experimental: Male mice (C3H, n=8) anesthetized with isoflurane were injected i.v. in the tail vein with 100 μl iohexol (diluted 1:10 from stock solution). 15 minutes following the injection, the mice were re-anesthetized with isoflurane and were kept anesthetized until termination of the experiments. Blood samples (each 20 μl) were collected from the retro-orbital space at 15, 30, 45 and 60 minutes.
Iohexol clearance was calculated by a bi-exponential method as: GFR=Dose/AUC, where AUC is the area under the plasma iohexol concentration curve. In addition, the slope of the second mono-exponential phase of the plasma disappearance curve for iohexol (k) was calculated using blood samples taken at 60, 90, 120, and 180 minutes.
For measurement of iohexol, all blood samples were centrifuged at 2000 g for collection of plasma. Plasma samples (5 μl from rats and 1 μl from mice) were immediately diluted 7.5-60 times by 0.1% (v/v) trifluoroacetic acid (TFA) in water and their iohexol concentrations were measured by two-dimensional HPLC using the Thermo Scientific™ Dionex™ UltiMate™ […] Rapid Separation series hardware, column switching and Chromeleon Chromatography Data System software (7.2.10). […] Both columns were washed separately by 99.9% acetonitrile/0.1% TFA, re-equilibrated in 0.1% TFA in water and ready for the next sample 9 minutes after injection. […]

[2] = design: species or system rats; conditions: rat, in vivo
Experimental: (§1) All animals were scanned using the same scanner, anesthesia procedure, monitoring and positioning as mentioned above. First, CT semicircular scans (same settings as contrast CT) were acquired from the lower edge of the ribs to the pelvis for anatomical reference and attenuation correction for PET. Following CT, a 10-minute dynamic PET acquisition was initiated, which was started 30 seconds before the bolus injection (30 sec duration of the injection) of 5-10 MBq ^18F-cytochrome C diluted in 1 ml saline through a tail vein catheter. Images were reconstructed in 1-5 coincidence mode using the Tera-Tomo 3D reconstruction algorithm (Mediso) with 4 iterations/6 subsets, corrected for attenuation and scatter with a resulting 0.4 mm^3 voxel size. The PET acquisition was reconstructed to 15 timeframes: 6×5 s; 6×30 s; 3×120 s.
To investigate the initial distribution, uptake and excretion of ^18F-cytochrome C in the body, two rats were dynamically scanned by PET-CT for 30 minutes. […] The ^18F signal peaked over the large abdominal vessels in less than 1 minute and appeared in the bladder in less than 10 minutes. After 10 minutes, the bladder signal increased exponentially and the kidney signal leveled out reflecting urinary excretion of ^18F-cytochrome C breakdown products.

[3] = Stability and plasma protein binding of labelled proteins by SEC-HPLC; format: physicochemical; conditions: high resolution size exclusion chromatography
Experimental: The stability and plasma protein binding of stock solutions of ^18F-cytochrome C and ^124I-cystatin C was evaluated by high resolution size exclusion chromatography (SEC-HPLC) after 12 h storage in room temperature and after 8 days of storage in fridge (4° C.).

Mouse PET-CT GFR = format: in vivo; conditions: male C3H mice
Experimental: as §1, with “Images were reconstructed in 1-5 coincidence mode using the Tera-Tomo 3D reconstruction algorithm (Mediso) with 4 iterations/6 subsets, corrected for attenuation and scatter with a resulting 0.4 mm^3 voxel size. The PET acquisition was reconstructed to 15 timeframes: 6×5 s; 6×30 s; 3×120 s.” left out
In more detail, 6 input function candidates were generated from 6 sphere-VOIs with diameters of 5, 6, 7, 8, 9, and 10 mm centered on the maximal signal intensity from the vessels and used for regression analyses to obtain an unbiased estimate of the area under the input function (AUC). […] An unbiased AUC was obtained from the regression analysis using a VOI-volume (x in regression equation) corresponding to a blood vessel diameter of 2.41 mm as measured by the ruler function with the software on the contrast CT images (n=8 images from 8 rats, SD=0.02). […] The auto segmentation tool was used to collect the ^18F-signals from both kidneys at 5.5 minutes using thresholds that gave VOI-volumes that matched the kidney volumes as measured by contrast CT. […]

[4] = PET GFR scanning (kidney activity divided by AUC); format: in vivo, rats; conditions: for GFR relative to the initial control value (PET-CT): CKD rats
Experimental: as §1
SD male rats (n=8) were fed by 0.35% adenine in the chow (Altromin, Denmark) for 7 weeks to induce chronic kidney disease (CKD). PET-CT GFR scanning was performed at baseline and at 3, 5 and 7 weeks after initiation of adenine feeding. Iohexol clearance (described below) was performed at baseline and after 3, 5 and 7 weeks of adenine feeding. Blood samples were taken every second week for creatinine measurements.
All images were analyzed using Inter View Fusion version 3.01.021.0000 (Mediso), and CT and PET images were automatically aligned. The sphere selection volume of interest (VOI) function was used to collect the signal from the large abdominal vessels close to the distal aorta branch level in the frame with the highest intensity and copied to all other frames to obtain the ^18F-cytochrome C intensity as a function of time (input function).
In more detail, 6 input function candidates were generated from 6 sphere-VOIs with diameters of 5, 6, 7, 8, 9, and 10 mm centered on the maximal signal intensity from the vessels and used for regression analyses to obtain an unbiased estimate of the area under the input function (AUC). […] An unbiased AUC was obtained from the regression analysis using a VOI-volume (x in regression equation) corresponding to a blood vessel diameter of 2.41 mm as measured by the ruler function with the software on the contrast CT images (n=8 images from 8 rats, SD=0.02). This approach was verified by ex vivo blood and kidney samples in a separate set of rats (n=8), i.e. the ^18F-clearances obtained by ex vivo sampling were not different from those obtained by the PET images. The same approach was adopted for mice using sphere diameters of 1, 1.5, 2, 2.5, 3, 3.5, and 4 mm and abdominal vessel diameter of 0.9 mm (n=8 mice, SD=0.07). The auto segmentation tool was used to collect the ^18F-signals from both kidneys at 5.5 minutes using thresholds that gave VOI-volumes that matched the kidney volumes as measured by contrast CT. The total kidney ^18F-activity was calculated as the mean VOI-intensity multiplied with the kidney cortex volume (total kidney volume from CT×2/3) and divided by AUC to obtain GFR.

GFR relative to the initial control value (iohexol) (Iohexol plasma clearance; 3 weeks of adenine): −50%
GFR relative to the initial control value (iohexol) (Iohexol plasma clearance; 7 weeks of adenine): −20%
GFR Iohexol/100 g (Iohexol plasma clearance; SD female rats (n = 6)): 0.73 ± 0.07 ml/min · 100 g
k, plasma disappearance rate constant of iohexol for the second mono-exponential phase (Iohexol plasma clearance; SD female rats (n = 6)): 0.026 ± 0.002 min⁻¹
iohexol-based GFR (Iohexol plasma clearance; SD females (n=6), FIG. 5D): 2.3 ± 0.3 mL/min
GFR Iohexol/100 g (Iohexol plasma clearance; SD male rats (n = 8)): 0.59 ± 0.06 ml/min · 100 g
k, plasma disappearance rate constant of iohexol for the second mono-exponential phase (Iohexol plasma clearance; SD male rats (n = 8)): 0.025 ± 0.002 min⁻¹
GFR Iohexol/100 g (Iohexol plasma clearance; Wistar male rats (n = 6)): 0.64 ± 0.01 ml/min · 100 g
k, plasma disappearance rate constant of iohexol for the second mono-exponential phase (Iohexol plasma clearance; Wistar male rats (n = 6)): 0.027 ± 0.002 min⁻¹
clearance (Iohexol plasma clearance; intravenous, SD male rats, baseline before 0.35% adenine (CKD model), read-out: Mean GFR estimated from iohexol clearance): 2.89 ± 0.14 mL/min
clearance (Iohexol plasma clearance; iv, SD female rats (n = 6), read-out: GFR Iohexol (iohexol clearance)): 2.25 ± 0.26 mL/min
clearance (Iohexol plasma clearance; iv, SD male rats (n = 8), read-out: GFR Iohexol (iohexol clearance)): 2.89 ± 0.12 mL/min
clearance (Iohexol plasma clearance; iv, Wistar male rats (n = 6), read-out: GFR Iohexol (iohexol clearance)): 2.84 ± 0.34 mL/min
clearance [1]: 0.51 ± 0.13 mL/min
Molecule: CC(=O)N(CC(O)CO)c1c(I)c(C(=O)NCC(O)CO)c(I)c(C(=O)NCC(O)CO)c1I (stereo not shown) [Iohexol]

Molecule: ^18F-cytochrome C: Cytochrome C from bovine heart labelled with [^18F]F-Py-TFP, comprising a 6-[^18F]fluoropyridine-3-carboxy group
Involvement of other organs such as liver and spleen [2]: negligible involvement of other organs
Time of ^18F signal appearance in the bladder ([2]; iv): less than 10 minutes
Time of ^18F signal peak over the large abdominal vessels ([2]; iv): less than 1 minute
Dimer formation / protein binding (size exclusion HPLC elution pattern) [3]: no sign of dimer formation or protein binding
GFR measured with PET (Mouse PET-CT GFR): 0.55 ± 0.12 mL/min
GFR relative to the initial control value (PET-CT) ([4]; 3 weeks of adenine): −50%
GFR relative to the initial control value (PET-CT) ([4]; 7 weeks of adenine): −20%
GFR (PET) ([4]; SD female rats (n = 6)): 1.88 ± 0.16 mL/min
GFR/100 g (PET) ([4]; SD female rats (n = 6)): 0.61 ± 0.06 ml/min · 100 g rat
PET-CT GFR ([4]; SD females (n=6), FIG. 5D): 2.3 ± 0.3 mL/min
GFR (PET) ([4]; SD male rats (n = 8)): 3.20 ± 0.12 mL/min
GFR/100 g (PET) ([4]; SD male rats (n = 8)): 0.66 ± 0.07 ml/min · 100 g rat
Mean GFR, PET-CT value ([4]; SD male rats, baseline before 0.35% adenine (CKD model)): 2.94 ± 0.12 mL/min
GFR (PET) ([4]; Wistar male rats (n = 6)): 3.01 ± 0.35 mL/min
GFR/100 g (PET) ([4]; Wistar male rats (n = 6)): 0.68 ± 0.11 ml/min · 100 g rat

B1: unlabelled cystatin C: Human cystatin C purchased from Nordic BioSite, unlabelled (protein, UniProt P01034 27-146, looked up)
Cystatin-C: SSPGKPPRLVGGPMDASVEEEGVRRALDFAVGEYNKASNDMYHSRALQVVRARKQIVAGVNYFLDVELGRTTCTKTQPNLDNCPFHDQPHLKRKAFCSFQIYAVPWQGTMTLSKSTCQDA
Dimer formation / protein binding (size exclusion HPLC elution pattern) [3]: appeared mainly as dimers

B2: ^124I-labelled cystatin C: Human cystatin C (Nordic BioSite) labelled with ^124I for PET by Iodo-Gen (protein, UniProt P01034 27-146, looked up)
Cystatin-C: B1 Cystatin-C
modifications: 124I label
notes: Human cystatin C (Nordic BioSite) labelled with ^124I for PET by Iodo-Gen
Dimer formation / protein binding (size exclusion HPLC elution pattern) [3]: appeared mainly as dimers
